This note sets out measurements from the supplement of paper PMC12042874.

± gives the uncertainty stated by the source.

A short description of this data set: amyloid nucleation score (Sup35N fusion, yeast selection) (log enrichment); library NNK3; higher = more nucleation; inactive = no reads after selection. In outline:
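Nucleation score is defined as the DiMSum log enrichment of output over input reads, with centring on the mode score of non-aggregating sequences. A minimum of 100 input reads was required for each sequence. Reads came from Illumina sequencing of plasmid inserts from psi-negative yeast expressing Sup35N fused to peptides of 20 random codons, induced with 100 μM copper sulfate for 24 hours and grown 7 days at 30°C on medium lacking adenine and uracil.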

On to FNWRLSSITDSSVYLPSWNL, for which the amyloid nucleation score entry is “inactive”.

Regarding QILLSLQIWRWWVNRII, the amyloid nucleation score entry was “inactive”.

In the case of YGSRW, the amyloid nucleation score result is “inactive”.

Take DRDGQPAWHLS: the amyloid nucleation score entry is “inactive”.

With IFTDLVA, the amyloid nucleation score entry is “inactive”.

Regarding TTCAVCRCIRGAMFNGSVSK, the amyloid nucleation score result was “inactive”.

With SNGELTVEHQGLQPLGEKRT, the amyloid nucleation score result was “inactive”.

In the case of KRSSSAAIKKRIIVQIDGNR, the amyloid nucleation score result is “inactive”.

Turning to GLVLISKC, the amyloid nucleation score result was “inactive”.

For the substance YKNIFSWSPNSWTYKCSVNN, the amyloid nucleation score entry was “inactive”.

Turning to CDSRSCFKVYASLAARSDQR, the amyloid nucleation score stood at 2.12 ± 0.074.

Substance LGVRNDPQQSLPVQFGFELE registered an amyloid nucleation score of 0.041 ± 1.2.

With FHYRENVNREHSPFWSREMV, the amyloid nucleation score result was “inactive”.

In the case of CEMGFLEPL, the amyloid nucleation score result is “inactive”.

Consider LRGKDN, for which the amyloid nucleation score entry is “inactive”.

Turning to IINIRVIVSSLFPFLSSEFS, the amyloid nucleation score result was “inactive”.

Take ITTCLMYHRLCECGSKVLGL: the amyloid nucleation score entry is “inactive”.

For WIKLNLTYAHWWNMV, the amyloid nucleation score result was “inactive”.

Regarding VHYIVNYRGRILV, the amyloid nucleation score entry is “inactive”.

Consider YIFRIHGPLPILHTRYPIRR, for which the amyloid nucleation score entry is “inactive”.

In the case of FVLKRYRCFLYLVQYDISTL, the amyloid nucleation score was -0.326 ± 0.98.

Substance FNSFCAYNTRHYYVVLGGIV registered an amyloid nucleation score of 1.04 ± 0.13.

Consider VDTILSNKVYVRAPPKRGSK, for which the amyloid nucleation score result was “inactive”.

PVKRVIYSRGYVQKCPLCP: the amyloid nucleation score entry is “inactive”.

For the substance AIGDVTVGRIHFDMHCGLGR, the amyloid nucleation score was -0.955 ± 1.2.

Consider FPQFLSIAGPKPHCKN, for which the amyloid nucleation score entry is “inactive”.

With FRNNRRRAVMCSGFMFRFNF, the amyloid nucleation score result is “inactive”.

Regarding TVIRRLYCLNGLVANTSFAV, the amyloid nucleation score result was “inactive”.

On to RDGHIQMCFIWVKRDNCQVF, for which the amyloid nucleation score result is “inactive”.

Consider INHLSWCPVYFYFWNPVYLR, for which the amyloid nucleation score amounted to 1.49 ± 0.11.

In the case of LTLCNPPTTRRTNATFLHCL, the amyloid nucleation score entry is “inactive”.

RNVIANEGLCQKR: the amyloid nucleation score entry is “inactive”.

Take LFNPMKTVYWHNLAIWHYDV: the amyloid nucleation score entry is “inactive”.

For MVYGVSAVEVKSSLVGWVVA, the amyloid nucleation score entry was “inactive”.

With LFTKRSYCCSCVVSGSEWAY, the amyloid nucleation score amounted to 0.852 ± 0.21.

On to RDVTC, for which the amyloid nucleation score entry was “inactive”.

In the case of LCVDVS, the amyloid nucleation score entry was “inactive”.

Consider SLGLHIWFCTLLAIWTLLLL, for which the amyloid nucleation score result was “inactive”.

As for NTLDERDCRSKLFAFLLRPS, the amyloid nucleation score result is “inactive”.

WWTLKPGESVVRGLRVCGAP: the amyloid nucleation score result was “inactive”.

For FSASVVSTGINTSY, the amyloid nucleation score result was “inactive”.

LCTSLLKF: the amyloid nucleation score was -0.5 ± 0.9.

HITVNRSKGFDGSRTAPFQM: the amyloid nucleation score result is “inactive”.

RCSCCCCNALANDRRVCMVE: the amyloid nucleation score entry was “inactive”.

Take FNKGYV: the amyloid nucleation score result is “inactive”.

With YVFKMWLGPSSLIEFDLKRH, the amyloid nucleation score was 2.88 ± 0.062.

With DTISGGEWDNEVRPYRILLL, the amyloid nucleation score entry was “inactive”.

Regarding TPDFVRSRKMNWVAIKKRAE, the amyloid nucleation score entry was “inactive”.

As for WLIFYVYIVGDPAWLLVFMS, the amyloid nucleation score entry is “inactive”.

In the case of IGITLFENHKFGLGLANVPG, the amyloid nucleation score result was “inactive”.

For the substance IRRLDEVNEWANSYKLWKKQ, the amyloid nucleation score result was “inactive”.

Substance HSIIRVSFLDMVCAGNSIVR yielded an amyloid nucleation score of -0.504 ± 1.9.

Consider VVLGADGRLPF, for which the amyloid nucleation score result was “inactive”.

The substance SEPIWYFRGFFCGLGLIWGW displayed an amyloid nucleation score of -0.389 ± 0.98.

Turning to RTWTSCDVICLGICLRSLAK, the amyloid nucleation score entry was “inactive”.

For the substance LYCGDSI, the amyloid nucleation score entry was “inactive”.

Take RLSYRVNCLRCPNFWNRHMS: the amyloid nucleation score came out at 1.93 ± 0.11.

The substance LASIHCVHLMRTYVRVQPPM returned an amyloid nucleation score of 0.87 ± 0.26.

For YTVGIVTDWFVTSGNSFYK, the amyloid nucleation score result was “inactive”.

As for PLRRSMMRIPHATF, the amyloid nucleation score result is “inactive”.

For NLVSVSRSYIKCVDRHRRTA, the amyloid nucleation score result was “inactive”.

Regarding HKWAI, the amyloid nucleation score entry is “inactive”.

SVNHKFVSDCIFGRATMEVR returned an amyloid nucleation score of -0.263 ± 0.9.

For the substance WTGFFCNAVKTTTGFNALFL, the amyloid nucleation score entry is “inactive”.

In the case of FGFCCKAPCVGSLWVPSVVT, the amyloid nucleation score entry was “inactive”.

Take TLIFFDKDYYCGVRQMWNVG: the amyloid nucleation score entry is “inactive”.

MLDISMEVSGCSILS had an amyloid nucleation score of -0.261 ± 0.52.

With WKAFNVTPFRGWVNVAVLA, the amyloid nucleation score result was “inactive”.

Consider CAKMHTCVYSFCTMEWSLTR, for which the amyloid nucleation score result was “inactive”.

Consider CFSDGPLRVHSIGQRWLRCR, for which the amyloid nucleation score entry is “inactive”.

On to DLVRITMIVYYVAASHMVAS, for which the amyloid nucleation score result was “inactive”.

In turn, SLCFRSIINIGFFK returned an amyloid nucleation score of 2.15 ± 0.056.

For the substance GCLVRCDFVSQCLNWDG, the amyloid nucleation score result is “inactive”.

LNNSTSCEVGKNVCISFKWA: the amyloid nucleation score is 2.22 ± 0.089.

Consider KRITLWCLCFRSYDHEMMV, for which the amyloid nucleation score result is “inactive”.

On to NWTYTAENPG, for which the amyloid nucleation score result was “inactive”.

CRVLDFSFSYFGMIFKLGTI: the amyloid nucleation score entry is “inactive”.

As for GRDAVHHCMLRESQRKLREV, the amyloid nucleation score entry was “inactive”.

Turning to FLPPKMVLFPVSEWSLDLRY, the amyloid nucleation score result is “inactive”.

RTKFWMRRKRLLPSILYNEL: the amyloid nucleation score result was “inactive”.

Consider EEFSGNLCDFRLQPRSCCEN, for which the amyloid nucleation score entry was “inactive”.

For ITKKRYNCRMFLIT, the amyloid nucleation score entry is “inactive”.

For PLQDL, the amyloid nucleation score result is “inactive”.

For the substance YLNFIGTLEV, the amyloid nucleation score result is “inactive”.

Turning to CSVQVGITSCSNGGYSNVYA, the amyloid nucleation score result was “inactive”.

Take IPSWELISGHWS: the amyloid nucleation score entry is “inactive”.

NQARHRSSIRRCG: the amyloid nucleation score entry is “inactive”.

With LIISCMQFLVYKKCGFSMRH, the amyloid nucleation score entry was “inactive”.

With PVWVKYIDYCPSRKHLSCRV, the amyloid nucleation score entry is “inactive”.

For the substance RIDRFCSFFNRSPSDCLLLS, the amyloid nucleation score entry was “inactive”.

Regarding MYQSLAYFASDLRIHWHMRK, the amyloid nucleation score came out at 0.729 ± 0.14.

For RLVLYMPVLLSMVVTNWALL, the amyloid nucleation score turned out to be 0.872 ± 0.15.

As to RMRSGSA, the amyloid nucleation score result was “inactive”.

Turning to GLSYNFHLCQVLVIFMVDGS, the amyloid nucleation score was 1.66 ± 0.1.

With INTVLLGYS, the amyloid nucleation score result is “inactive”.

Regarding LFGCEQRYP, the amyloid nucleation score result was “inactive”.

In the case of LENFRCPVEGAVQERFGANL, the amyloid nucleation score result was “inactive”.

In the case of ECADLWARLYHFF, the amyloid nucleation score entry was “inactive”.

On to FKKCVDLKHYNVSMDVRCVL, for which the amyloid nucleation score entry was “inactive”.

Regarding FMFASQLMRFFHSWTVSRSS, the amyloid nucleation score entry is “inactive”.

As for FSGFTVR, the amyloid nucleation score result was “inactive”.

IKSTTSKVPANMDSWLGTKM: the amyloid nucleation score result is “inactive”.

With TSFFNNFSLLFVLVWNVLRG, the amyloid nucleation score entry was “inactive”.

Consider RVMAMYIGV, for which the amyloid nucleation score entry was “inactive”.

For the substance SAKFTLLGISL, the amyloid nucleation score entry was “inactive”.

Consider LSDGSHLSECYGFT, for which the amyloid nucleation score entry was “inactive”.

Consider TFWKKGMPGIIYRYFYLF, for which the amyloid nucleation score entry was “inactive”.

With DFTDYMPIMYTLHRVVIQMY, the amyloid nucleation score result is “inactive”.

In turn, TSTGYNPIYYIMMFN registered an amyloid nucleation score of 0.677 ± 0.32.

With SQFTIVVTAVLVT, the amyloid nucleation score entry is “inactive”.

Take YFANTVRTFLVLLQAFVLVV: the amyloid nucleation score result is “inactive”.

HVTQLNGVAYSCEI: the amyloid nucleation score result is “inactive”.

With HIFHQIKANDHAIFLGNVSG, the amyloid nucleation score result is “inactive”.

For the substance IYVLNLMLFVFCRNVLCDGY, the amyloid nucleation score result was “inactive”.

In the case of PPFYMCFYLFVGLRNSMGWL, the amyloid nucleation score entry is “inactive”.

For NSQRASCSSLTYRSELYGNS, the amyloid nucleation score entry is “inactive”.

Take DNLWRVRLRCKAFSLYVLNR: the amyloid nucleation score entry is “inactive”.

TWWSLGSVELVLWFKSCCDF showed an amyloid nucleation score of 1.44 ± 0.083.

With MEFYVYTMDKRCSRMFSWHS, the amyloid nucleation score result was “inactive”.

As for NPLCTSYNQHPRGYHALTYN, the amyloid nucleation score entry is “inactive”.

As to IFSVFLLTMLEQRQKAHSLM, the amyloid nucleation score entry is “inactive”.

With SFNSNSDDDIIFDALNYTLN, the amyloid nucleation score worked out at 0.069 ± 0.62.

In the case of RPFLCYLTAPASMNNTLNQV, the amyloid nucleation score entry is “inactive”.

For the substance QVLQKVHG, the amyloid nucleation score result is “inactive”.

Substance NNCVGCPCFSYRS yielded an amyloid nucleation score of 3.04 ± 0.072.

Consider DNATARLQTRNEWSMR, for which the amyloid nucleation score entry was “inactive”.

On to LQRPASEFSERGA, for which the amyloid nucleation score entry is “inactive”.

In the case of GAQAKC, the amyloid nucleation score entry is “inactive”.

As to FMVGR, the amyloid nucleation score result is “inactive”.

On to VFKFVLLSLYMFQWGNAFPM, for which the amyloid nucleation score entry was “inactive”.

For WASLGINR, the amyloid nucleation score result is “inactive”.
